The target in assay [1] is C-terminal domain (CTD) of major ampullate spidroin 1 (MaSp1) from Euprosthenops australis, wild type (Euprosthenops australis). Put plainly: far-UV CD equilibrium chemical denaturation at varying protein concentration; urea 0-10 M, CD at 222 nm, 5-30 µM CTD, 50 mM phosphate pH 7.0, ionic strength 200 mM (KCl), 298 K, reducing (1 mM DTE); three-state model N2-I2-D; dimeric intermediate to denatured monomers.

Assay [2] has as its target CTD of MaSp1 from E. australis modified at C82 with AttoOxa11 (Euprosthenops australis). Put plainly: fluorescence chasing experiment (dissociation kinetics); 60, 120 and 180 nM CTD-AttoOxa11 dimers chased with 20 µM chemically reduced wild-type CTD, manual mixing, 298 K, emission at 677 nm; bi-exponential fit; dimer to monomers.
The target is the same in assay [3]. The experiment in a line: stopped-flow fluorescence spectroscopy (refolding and dimerisation of denatured monomers); sub-µM CTD-AttoOxa11 in 8 M urea mixed 1:10 into 50 mM phosphate pH 7.0, ionic strength 200 mM (KCl), 298 K; denatured monomers to dimeric intermediate I2.

Consider two substances from PMC6235870.

Regarding “C-terminal domain (CTD) of major ampullate spidroin 1 (MaSp1) from Euprosthenops australis, wild type (domain or fragment)”, the stoichiometry N in assay [1] was found to be 2.
In assay [2], “CTD of MaSp1 from E. australis modified at C82 with AttoOxa11 (domain or fragment)” displayed a koff of 0.008 s⁻¹; an observed time constant of dissociation, first exponential, 60 nM of 51 s; an observed time constant of dissociation, first exponential, 120 nM of 37 s; an observed time constant of dissociation, first exponential, 180 nM of 34 s. In addition, in assay [2], the observed time constant of dissociation, second exponential, 60 nM amounted to 208 s; the observed time constant of dissociation, second exponential, 120 nM worked out at 186 s; the observed time constant of dissociation, second exponential, 180 nM stood at 194 s; the time constant of dissociation (mean weighted by amplitudes) stood at 128 s. Besides, the kon in assay [3] came out at 5.2e+07 M⁻¹ s⁻¹.
